# Laboratory results published in the nanobody polyreactivity screen of Harvey et al. (2022).
# Experiment: yeast display, Sf9 membrane polyspecificity reagent, FACS + sequencing; frameworks hold sequencing errors
# In short: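 Synthetic nanobody libraries on Saccharomyces cerevisiae BJ5465 were galactose-induced for 36–48 hours, stained 1 hour at 4 °C with 10% biotinylated, detergent-solubilized Sf9 membrane reagent and enriched on streptavidin microbeads. FACS then separated cells into low and high (top ~1%) gates by anti-HA (expression) and streptavidin (reagent binding) fluorescence. Genes were colony-PCR amplified, MiSeq 2 × 250 sequenced and CDR-length filtered. A clone's polyreactivity label is that of its gate of origin.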
row,Sequence,polyreactivity (PSR sort gate)
1,QVQLVESGGGLVQAGGSLRLSCAASGFSFYYNTMGWYRQAPWTERELVAAITRSFGSTYYADSVKGSFTIARDHAQNTVYVQMNSLKPEDTAVYFCAARAYYFPKLPADYYWGQGTQVSVSS,high polyreactivity
2,QVQLVESGGGLVQAGGSLRLSCAASGSILYVYDMGWYRQAPGNERELVATITGRVVSTNYADSVKGRFTISRDNAKNTVYLQMNSLKPEDTAVYYCAARTRRRRGEYDYWGQGTQVTVSS,high polyreactivity
3,QVQLVESGGGLVQAGGSLRLSCAASGRTFSRYAMGWYRQAPGKERELVATISSSGGTTYYADSVKGRFTISRDNAKNTVYLQLNSLKPEDTAVSYCNSEYKIRTHASGFDYWGQGTQVTVSS,low polyreactivity
4,QVQLVESGGGLVQAGGSLRLSCAASGRMFGPYTMGWYRQAPGKEREFVAAITRRGGSTYYADSVKGRFTFSRDNAKNTVYLQMNSLKPEDTAVYYCAAVGQNRSLGYSWGQGTQVTVSS,low polyreactivity
5,PVQLVESGGGLVQAGGSLRLSCAASGNIFGVYPMGWYRQAPGKERELVAVITSSGSTYADSVKGRFTISRDNAKNTVFLQMNSLKPEDTAVYYCNTDGYYHPHGFDYYRYYYWGQGTQVTVSS,high polyreactivity
6,QVQLVESGGGLVQAGGSLRLSCAASGSNFRGYTMGWYRQAPGKERELVAAISLSGGSTYYADSVKGRFTISRDNAKNTVYLQMNSLKPEDTAVYYCAASLPWYDEFDYWGQGTQVTVSS,low polyreactivity
7,QVQLVESGGGLVQAGGSLRLSCAASGFTFAVYAMGWYRQAPGKERELVAAIDSSDGSTSYADSVKGRFTISRDNAKNTVYLQMNSLKPEDTAVYYCAGDQYWWFYEYEYWGQGTQVTVSS,low polyreactivity
8,QVQLQESGGGLVQGGGSLRLSCAASGSIYRSWYMGWYRQAPGKERELVASITEGATTNYAYSVKAALPLAAITRNTVYLQMDSMKPEDTAVYYRAASFGSTYDLVYWGQGTQVTVSS,high polyreactivity
9,QVQLVESGGGLVQAGGSLRLSCAASGSIFGYNAMGWYRQAPGKERELVAAINYNGGRTYYADSVKGRFTISRDNAKNTVYLQMNSLKPEDTAVYYCNKVYLRTSGRDYWGQGTQVTVSS,high polyreactivity
10,QVQLVESGGGLVQAGGSLRLSCAASGSTFGRNVMGWYRQAPGKERELVAAISIRGGSTYYADSVKGRFTISRDNAKNTVYLQMNSLKPEDTAVYYCARDYPTDAYDYWGQGTQVTVSS,low polyreactivity
11,QVQLVESGGGLVQAGGSLRLSCAASGRISGYNMGWSRHAPGKERELVAAISNGGSTNYADSVKGRFTISRANAKNTVYLQMNSLKPEDTAVYYCAKLGPRSYSAYRYDYWGQGTQVTVSS,high polyreactivity
12,QVQLVESGGGLVQAGGSLRLSCAASGSIFIINTMGWYRQAPGKERELVAAISWGGTDTNYADSVKGRFTISRDNAKNTVYLQMNSLKPEDTAVYYCNTDQDLVRSYDYWGHGTQVTVSS,low polyreactivity
13,QVQLVESGGGLVQAGGSLRLSCAASGRTFEVYAMGLYRQAPGKERELVATITYSGGITYYADSVKGRFTISRDNAKNTVYLQMNSLKPEDTAVYYPIGVRGDYDYWGQGTQVTVSS,low polyreactivity
14,QVQLVEAGGGLVQSGGSLRLSCAASGSIFNIYAMGWSRQAAGKDRELVAVISSRGGRSYYADSVKGRFTISRDNAKNTVYLQMTSLKPEDTAVYYCAAGYLRQGYRGYDYWGQGTQVTVSS,high polyreactivity
15,QVQLVESGGGLVQAGGSLRLSGAASGGTFDYYAMGRYRQAPGKERELVAAISTSGGRTYYADSVKGRFTISRDNAKYTVYLQMNSLKPEDTAVYYCAALSPRAKYASFYYWGQGTQVTVSS,high polyreactivity
16,QVQLVESGGGLVQAGGSLRLSCAASGLTFWYYAMGWYRQAPGKERELVARITRSGVGTYYADSVKGRFTISRDNAKNTVYLQMNSLKPEDTAVYYCNARYQYSWVRYGYDYWGQGTQVTVSS,high polyreactivity
17,QFQLVESWGGLVQAGGSLRLSCAASGTMGWYRQAPVKERELVAAISQSGGSTYYADSVKGRFTISRDNAKNTVYLQMNSLKPEDTAVYYCAVDPLYGDPRRDYWGQGTQVTVSS,low polyreactivity
18,QVQLVETGGGLVQAGGSLRLSCAASGSIFQGYAMGWYRQAPGKERELVAGITSSGGSTHYADSVKGRFTISRDNAKNTVYLQMNSLKPEDTAVYDYWGQGTQVTVSS,low polyreactivity
19,QVQLVESGGGLVQAGGSLRLSCAASGRIFGAYAMGWYRQAPGKERELVAAITSAGSTHYADSVKGRFTISRDNAKNTVYLQMNCLKPQDTAVYYCAADRYPWPLQYVEYDSDYWGQGTQVTVSS,low polyreactivity
20,QVQLVESGGGLVQAGGSLRLSCAASGLIFVGYAMGWYRQAPGKERELVAAITSGGSTKYADSVKGRFTISRDNAKNTVYLQMNSLKPEDTAVYYCAASGWRNWWSARNYYWGQGTQVTVSS,low polyreactivity
21,QVQLVESGVGLVQAGGSLRLSCAASGRTFVGNAMGWYRQAPGKERELVAAISVSGGSTYYADSVKGRFTISRDNAKNTVYVQMNSLKPEDTAGYYCAADGYYNRYGYRTSDESEYWGQGTQVTVTS,low polyreactivity
22,QVQLVESAGVLVQAGGILRLSFAASGINFPYYAMGWYRKAPGKERELVAAISSSGGSSYYADSVKGRFTISRDNAKNTVYLKLNILKPEDTAVYYCAAHRYINYEYWGQGTQLTVSS,high polyreactivity

row,Sequence,polyreactivity (PSR sort gate)
1,QVQLVESGGGIVQAGGSLRLSCAASGRNFTFYAMGWYRQAPGKERELVAAITKSGGSTYYADSVKGRFTISRDNAKNTVYLQMNSLKPEDTAVYYCAAGNHRRPADYGSWGQGTQVTVSS,low polyreactivity
2,QVQLVESGGGLVQAGGSLRLSCAASGRIFYGYAMGWYRKAPVKEREFVAAITVSAGSTYYADSVKGRFTISRDNAKNTVYLLMNSLKPEDTAVYYCASKRYVYPSYRFDYWGQGTQVSVSS,low polyreactivity
3,QVQLVESGGGLDQAGGSLRLSCAASVRIFEENAMGWSRQAPGKEREFVAVITSSGGGTYYADSVKGRFTISRDKAKNTVYLQMNSLKPEDTAVYYCARADKLHTRGWGRWGSGSYSWGQGTQVTVSS,low polyreactivity
4,QVQLVESGGGLVQAGGSLRLSCAASGRTFGGNAMGWYRQAPGKERELVASITKRSGSTYYADSVKGRFTISRDNAKNTVYLQMNSLKPEDTAVYYCNTKPSYYFFANTYYGYNDDYWGQGTQVTVSS,high polyreactivity
5,QVQLVESGGGLVQAGGSLRLSCASSGSTFVTYAMGWYRQAPGKERELVAAITEDGASTYYADSVKGRFTISRDNAKNTVYLQMNSLKPEDTAVYYCAADPTYWPVWYVLYDYWGQGTQVTVSS,low polyreactivity
6,QVQLVESGGGLVQAGGSLRLSCASSGRTFSPYAMGWYRQAPGKERELVAAISSGGGNTYYADSVKGRITISRDNAKNTVYLQMNSLKPVDTAVYYCNAAQRRGGLGYWGLGTQVTVSS,high polyreactivity
7,QDQLVDSGGGLVQAGGSLRLSCAASGYIFDRYAMGWYRQEPGKERELVAAISGRGGSTYYADSVKGRFTISRDNAKNTVYLQMYSLKREDTAVYYCARDVYVRNGQRARFDSWGQGTQVTVSS,high polyreactivity
8,QVQLVESGGGLVQAGGSLRLSCAASGSTLRRHAMGWYRQAPGKERELVAAISSGGSTYYEDSVKGRFTISRDNAKNTVYLQMNSLKPEDTAVYYCAAPYSYRTWYPYGYWVQGTQVTVSS,high polyreactivity
9,QVQLVESGGGLVQGGGSLRLSCAASGRIFTFYAMGWSRPAPGKARELVASITGGGNTYYADSVKGRFTISRDNAKNTVNLQMNSLKPEDTAVYYCAADDGYRELDYWGQGTQVTVSS,low polyreactivity
10,QVQLVESGGGLVQAGGSLRLTCAASGNTFYGYAMGWYRQAPGKERELVASITLSGDSTYYADSVKGRFTISRDNAKNTVYLQMNSLKPEDTAVYYCAGVYTYPLGYFHYTYDYWGQVTQVTVSS,low polyreactivity
11,QVQLVESGGGLVQAGGSLRLSCAASGRIFYHYAMGWYRQAPGKERELVAAITSSGAGTYYADSVKGRFTISRDNAKNTVYLPMNSLKPEDTAVYYCAARRYAWLHSYDMYYWGHGTQVTVSS,high polyreactivity
12,QVQLVESGGCLVQAGGSLRLRCAASGFMFGSYAMGWYRQAPGKERELVAAISRRGSSTSYADSVKGRFTISRDNAKNTVYLQMNSLKPEDTAVYFCAPPYLKKWGYYFDGNYWGQGTQVTVSS,high polyreactivity
13,QVQLVESGGGLVQAGGSLRLSCAASGIIFDLNAMGWYRQAPGKERELVAAISSGGGTYYADSVKGRFTISRDNAKNTVYLQMNSLKPEDTAVYYCNRVTRWTYNYWGQGTLVTVSS,high polyreactivity
14,QVQLVESGGGLVQAGGSLRLSCAASGYTFYSNAMGWYRQAPGKERELVAVISRGGGTYYADSVKGRFTISRDNAKNTVYLQMNSLKPEDTAVYYCAASTFTYHWRYDYWGQGTEVTVSS,low polyreactivity
15,QVQLVESGGGLVQAGGSLRLSCAASGFTFKLYAMGWYRQAPGKERELVAAISSSGGRTYYADSVKGRFTISRDNAKNTVYLQMNSLKPEDTAVYYCNAVRTVNDYHYDYWGQGTQVTVSS,high polyreactivity
16,QVQLVESGGGLVQAGGSLRLSCAASGSIFSYYAMGWYRQAPGKERELFADINLDDGRTYYADSVKGRFTISRDNAKNTVYLQMNSLKPEDTAVYYCAADEFYSFRYLFGPTFDYWGQGTQVTVSS,high polyreactivity
17,QVQLVESGGGLVQAGGSLRLSCAASGRIFYHYAMGWYRQAPGKERELVATINSSGTSTYYADSVKGRFTISRDNAKNTVYLQMNSLKPEDTALYYCAASTYNKMYYWGQGTHVTVSS,high polyreactivity
18,QLQLQESGRGLVQAGGSLRLSCAASGNIVDADIMGWYRQAPGKERELVASITDGGSTNYADSVKGRFTISRDNAKNTVYLQMNSLKTEDTAVYYCAAIAYPVIPTYFDYDSEYFYWGQGTQVTVSS,low polyreactivity
19,QVQLVESGGGLVQAGGSLRLSCAASGSILYVYAMGWYRQAPGKERELVAAISFSGGSTYYADSVKGRFTISRDNAKNTVYLQMNSLKPEDTAVYYCAAALGPGAWYGDKYEYEYWGQGTQVTVSS,low polyreactivity
20,QVQLVESGGGLVQAGGSLRLSCAASGRIFTHNAMGWYRQAPGKERELVAAISYSGVSTYYADSVKGRFTISRDNAKNTVYLQMNSLKPEDTAVYYCNALIQSWRARIRRYYWGQGTQVTVSS,low polyreactivity
21,QVQLVESGGGLVQAGGSLRLSCAASGSTFWYNTMGWYRQAPGKERELVAAITSSGGSTYYADSVKGRFTISRDNAKNTVYLQMNSLKPEDTAVYYCNALHTRTGVKARYYYWGQGTQVTVSS,high polyreactivity
